In PMC3999280 one finds stoichiometry N and K half data, which are given here for 2 substances.

The stoichiometry N is the number of molecules, sites or subunits per partner or assembly.

For series [1], the target named is LdtRLas (LdtR from 'Candidatus Liberibacter asiaticus', […]_01180) ('Candidatus Liberibacter asiaticus' str. psy62). Put plainly: SEC. Background: In gel filtration, larger molecules generally elute earlier.
In series [2] the target is LdtRLas ('Candidatus Liberibacter asiaticus') (UniProt A0ABN4AZS1). Put plainly: EMSA. The following applies: EMSA: 50 mM Tris-HCl pH 7.2, 150 mM KCl, 10 mM MgCl2, 0.01% Triton X-100, 12.5 ng/uL each poly(dI-dC) and poly(dA-dT), 1 ng probe in 20 uL, 20 min at 37 C; 6% …. On the technique in general: Mobility shift assays separate free from complexed probe on a gel.

In turn, “LdtRLas (LdtR from 'Candidatus Liberibacter asiaticus', […]_01180) (natural protein)” returned a stoichiometry N in series [1] of 2.
In turn, PldtP (PldtPLas) yielded a K half in series [2] of 100 nM.
